Consider one molecule from article PMC10110401, “HuR modulation counteracts lipopolysaccharide response in murine macrophages”.

In the series the target is HuR M1M2 (rM1M2_HuR) (UniProt Q15717 20-186). As to the kind of experiment: HTRF; 20 nM protein, 50 nM probe; hook point titration 0-500 nM protein; TM7nox inhibits with IC50 0.7956 uM (small-molecule value); REMSA: 3.7 nM (or 100 nM) protein, 1 nM probe, 30 min, 4% native PAGE, buffer not given; HTRF: 20 nM protein, 50 nM probe, buffer not given; pull-down: lysis in 20 mM Tris-HCl pH 7.5, 100 mM KCl, 5 mM MgCl2, 0.5% NP-40, probe 0.5 uM in TENT (20 mM Tris-HCl pH 8.0, 2 mM EDTA, 500 mM …). The conditions noted are these: protein: recombinant; tags: His-tag; label: biotin; single strand.
Chain of HuR M1M2 (rM1M2_HuR) (Q15717 20-186): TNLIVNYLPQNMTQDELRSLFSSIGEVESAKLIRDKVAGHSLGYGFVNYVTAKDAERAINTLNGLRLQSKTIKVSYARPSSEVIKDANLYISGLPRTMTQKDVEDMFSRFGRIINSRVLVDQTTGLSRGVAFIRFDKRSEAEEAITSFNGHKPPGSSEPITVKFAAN

B1: Bi-TNF ARE probe (ssRNA)
RNA: AUUAUUUAUUAUUUAUUUAUUAUUUA
modifications: 5'-biotin
With B1, the binding result was “binds”.
